These results are taken from article PMC11928764.

Like-named read-outs stand apart in the source and are kept apart here.

Assay [1] has as its target eSALO-WT (SALO, salivary anticomplement from Lutzomyia longipalpis, expressed by HEK293(T) cells) (Lutzomyia longipalpis) (UniProt Q5WPZ4). Nature of the assay: SPR; biotinylated eSALO-WT captured on streptavidin (97 RU); single-cycle kinetics, C1r proenzyme 25-400 nM, zC1r-12SP 6.25-100 nM; 25 °C, HBS-T; two-state kinetic model, apparent KD.
In assay [2] the target is eSALO-E58A (Lutzomyia longipalpis). Nature of the assay: SPR; biotinylated eSALO-WT or mutants captured on streptavidin (50-73 RU); single-cycle kinetics, C1r proenzyme 25-400 nM, zC1r-12SP 6.25-100 nM; 25 °C, HBS-T; two-state binding model, apparent KD; mean ± SD of three injections.
In assay [3] the target is eSALO-WT (SALO, salivary anticomplement from Lutzomyia longipalpis, expressed by HEK293(T) cells) (Lutzomyia longipalpis) (UniProt Q5WPZ4). Described as above.
The target of assay [4] is eSALO-Y51F (Lutzomyia longipalpis). Described as above.
Assay [5] addresses eSALO-WT (SALO, salivary anticomplement from Lutzomyia longipalpis, expressed by HEK293(T) cells) (Lutzomyia longipalpis) (UniProt Q5WPZ4). Nature of the assay: SPR; eSALO-WT amine-coupled to a CMD200M chip (720 RU); analytes injected as two-fold series (15.6-1000 nM; 1.56-100 nM for C1 and C1r proenzyme); 25 °C, HBS-T (20 mM Hepes pH 7.4, 140 mM NaCl, 0.005% Tween-20); 1:1 model, apparent KD.

The target in assay [6] is T1, C1r proenzyme (zymogen of complement protease C1r) (human).
T1 sequence (P00736 18-705, looked up): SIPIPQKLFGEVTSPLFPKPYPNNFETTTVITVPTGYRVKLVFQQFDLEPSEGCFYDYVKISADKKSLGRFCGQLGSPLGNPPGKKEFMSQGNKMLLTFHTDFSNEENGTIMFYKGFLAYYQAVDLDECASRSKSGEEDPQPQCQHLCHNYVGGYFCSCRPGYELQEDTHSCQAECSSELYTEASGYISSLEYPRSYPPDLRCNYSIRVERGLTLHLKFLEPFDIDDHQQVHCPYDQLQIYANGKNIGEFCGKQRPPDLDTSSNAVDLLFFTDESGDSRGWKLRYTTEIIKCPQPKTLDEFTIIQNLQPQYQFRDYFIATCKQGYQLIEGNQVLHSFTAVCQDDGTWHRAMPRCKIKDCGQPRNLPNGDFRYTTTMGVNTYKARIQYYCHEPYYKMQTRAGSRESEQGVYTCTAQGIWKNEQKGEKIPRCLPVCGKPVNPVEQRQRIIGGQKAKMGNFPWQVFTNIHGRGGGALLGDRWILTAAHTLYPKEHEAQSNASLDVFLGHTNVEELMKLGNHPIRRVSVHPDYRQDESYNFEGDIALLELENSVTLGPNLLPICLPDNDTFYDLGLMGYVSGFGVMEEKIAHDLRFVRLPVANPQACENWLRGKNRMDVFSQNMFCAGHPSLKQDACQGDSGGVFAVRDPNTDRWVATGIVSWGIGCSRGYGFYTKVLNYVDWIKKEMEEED

For assay [7] the target is unchanged. This is another data set of the same source.

As to “C1r proenzyme (zymogen of complement protease C1r)”, the Kd in assay [1] came to 11.1 nM; in assay [2], 10.3 nM; in assay [3] it was 5.6 nM; in assay [4] it was 41.9 nM; in assay [5], 8.5 nM. For the same molecule, the Ka-1 (two-state model, first step, association) in assay [2] was determined as 50000 M⁻¹ s⁻¹; in assay [3] it was 30000 M⁻¹ s⁻¹; in assay [4], 370000 M⁻¹ s⁻¹. Moreover, the Ka-2 (two-state model, second step, forward) was determined as 0.0023 s⁻¹ in assay [2], 0.003 s⁻¹ in assay [3] and 0.0008 s⁻¹ in assay [4]. Also, the Kd-1 (two-state model, first step, dissociation) stood at 0.0027 s⁻¹ in assay [2], 0.0022 s⁻¹ in assay [3] and 0.0183 s⁻¹ in assay [4]. Moreover, the Kd-2 (two-state model, second step, reverse) in assay [2] turned out to be 0.00037 s⁻¹; in assay [3] it was 0.00027 s⁻¹; in assay [4] it was 0.00069 s⁻¹.

As for “Native C1 complex (first component of complement) (from UniProt P02745 23-245; P02746 28-253; P02747 29-245)”, the Kd in assay [5] came out at 0.8 nM.

Take eSALO-E58A (natural protein): the IC50 of inhibition of classical-pathway hemolysis (antibody-sensitized sheep erythrocytes, 0.5% NHS) in assay [6] is 1200 nM.

Regarding eSALO-Y51F (natural protein), in assay [6], the IC50 of inhibition of classical-pathway hemolysis (antibody-sensitized sheep erythrocytes, 0.5% NHS) is 14500 nM.

Regarding “zC1r-12SP (fragment of human C1r with its two CCP repeats and serine protease domain, S654A, zymogen-like) (domain or fragment)”, the Kd in assay [1] turned out to be 0.7 nM. In addition, in assay [2], the Ka-1 (two-state model, first step, association) amounted to 260000 M⁻¹ s⁻¹; the Ka-2 (two-state model, second step, forward) was determined as 0.0018 s⁻¹; the Kd is 2.5 nM; the Kd-1 (two-state model, first step, dissociation) is 0.0034 s⁻¹. In addition, in assay [2], the Kd-2 (two-state model, second step, reverse) worked out at 0.00041 s⁻¹. For the same molecule, in assay [3], the Ka-1 (two-state model, first step, association) came to 370000 M⁻¹ s⁻¹; the Ka-2 (two-state model, second step, forward) stood at 0.0024 s⁻¹; the Kd stood at 1.1 nM; the Kd-1 (two-state model, first step, dissociation) came to 0.0038 s⁻¹. The Kd-2 (two-state model, second step, reverse) in assay [3] is 0.00028 s⁻¹. Also, in assay [4], the Ka-1 (two-state model, first step, association) worked out at 280000 M⁻¹ s⁻¹; the Ka-2 (two-state model, second step, forward) was determined as 0.0017 s⁻¹; the Kd was found to be 9 nM; the Kd-1 (two-state model, first step, dissociation) worked out at 0.008 s⁻¹. Moreover, the Kd-2 (two-state model, second step, reverse) in assay [4] came out at 0.00077 s⁻¹.

B1: eSALO-WT (SALO, salivary anticomplement from Lutzomyia longipalpis, expressed by HEK293(T) cells) (natural protein)
chain: SEDCENIFHDNAYLLKLDCEAGRVDPVEYDDISDEEIYEITVDVGVSSEDQEKVAKIIRECIAQVSTQDCTKFSEIYDCYMKKKICNYYPENM
modifications: sulfotyrosine at Y51 (X51; extent of sulfation not known); biotin (NHS-PEG4-biotin) where surface-captured in SPR
B1: in assay [6], the IC50 of inhibition of classical-pathway hemolysis (antibody-sensitized sheep erythrocytes, 0.5% NHS) was 84.9 nM.

B2: rSALO-WT (SALO expressed in Escherichia coli and refolded) (natural protein)
chain: B1 chain
For the molecule B2, the IC50 of inhibition of classical-pathway hemolysis (antibody-sensitized sheep erythrocytes, 0.5% NHS) in assay [7] stood at 16 µM.
